B1: EPB41L3 (parent)
chain: SMQCKVILLDGSEYTCDVEKRSRG
B2: GNAI1 (parent)
chain: WIHCFEGVTAIIFCVALSDYDLVL

Variants of: B1
Test: protein stability index of a GFP-peptide fusion (GPS, HEK-293T) (PSI 1-6); higher = more stable
Conditions: c terminus: a fixed tail appended
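Further: lentivirally expressed fusions sorted by FACS into six bins by GFP to DsRed ratio, PSI derived from sequencing read proportions per bin multiplied by bin number.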

Protein stability index, by site and new letter:
D10: Q 2.41 | T 2.75 | R 2.03 | H 1.5 | G 2.14 | A 2.07 | W 1.09 | M 1.5 | E 2.24 | V 1.62 | N 1.89 | K 3.15 | Y 1.77 | L 1.67 | P 2.66 | F 2.14 | S 2.04
L9: M 3.2 | Y 2.41 | K 3.81 | E 4.28 | D 4.09 | N 3.92 | H 3.44 | P 3.71 | Q 3.94 | G 3.72 | S 2.85 | T 3.51 | V 3.31 | C 2.79 | I 2.97 | F 2.83 | A 3.6 | R 3.03
Y14: G 3.69 | V 3.15 | R 3.66 | I 2.74 | P 3.66 | T 2.81 | C 2.67 | A 3.7 | L 1.84 | E 3.83 | D 3.81 | N 3.7 | F 2.21 | W 1.9 | K 3.97 | S 4.43
T15: R 2.45 | S 3.03 | V 2.06 | D 3.38 | P 3.37 | L 1.67 | E 2.45 | Q 3.19 | I 2.67 | F 1.63 | H 1.98 | M 2.49 | Y 2.58
S12: Q 2.92 | T 2.16 | H 2.34 | Y 1.78 | M 1.98 | V 2.05 | D 3.08 | P 2.4 | N 2.91 | G 2.9 | I 2.39 | C 2.14 | W 1.94 | E 4.38 | R 2.99 | A 3.39 | K 3.51
E19: S 2.6 | C 2.13 | M 2.14 | D 2.19 | N 2.29 | P 2.11 | F 1.19 | T 1.54 | Q 2.5 | H 1.73 | G 2.51 | R 2.15 | W 2.11 | V 2.35 | Y 2.14 | A 2.17 | K 2.34 | L 1.99 | I 1.93
L8: I 2.17 | C 3.13 | H 3.66 | Q 4.25 | T 2.67 | E 4.05 | M 3.13 | P 4.33 | S 3.79 | Y 3.13 | A 3.31 | K 3.43 | N 4.24 | D 4.41 | F 4.39 | R 2.83
G11: D 2.98 | C 2.41 | H 3.67 | P 3.22 | R 2.64 | V 2.64 | N 3.26 | W 1.68 | K 2.94 | A 2.58 | M 1.73 | Y 2.51 | T 2.76 | E 2.03 | I 1.99 | Q 2.87 | L 2.75
G24: P 2.47 | W 2.88 | I 1.98 | C 2.56 | N 3.27 | D 2.37 | M 2.51 | K 2.99 | Y 2.25 | T 3.25 | R 2.84 | A 3.43 | F 2.47 | S 3.48 | H 2.47 | E 3 | V 2.83 | L 2.47 | Q 2.17
I7: R 3.45 | T 3.64 | L 2.63 | H 3.03 | S 3.91 | Y 2.15 | A 3.03 | F 2.39 | N 3.43 | Q 3.13 | W 3.62 | D 4.08
R23: P 2.51 | M 2.72 | K 3.39 | D 3.51 | F 2.07 | V 2.88 | L 2.8 | H 3.31 | A 3.05 | S 3.17 | I 2.45 | Y 2.22 | T 3.61 | N 2.52 | Q 2.87 | E 2.63 | C 3.04
R21: P 3.06 | L 2.31 | N 1.92 | E 3.09 | G 2.73 | Q 2.55 | H 2.72 | I 1.88 | D 3.49 | T 2.84 | W 1.57 | K 3.56 | M 1.88 | Y 2.09 | C 2.86 | V 2.19
C16: E 3.52 | W 2.01 | T 2.55 | M 2.41 | N 2.84 | A 2.95 | I 2.77 | L 2.23 | S 2.65 | D 3.44 | G 3.19 | F 2.66 | V 3.7 | K 3.07 | P 2.66 | H 3.53
S22: W 2.11 | M 2.4 | G 3.02 | H 2.89 | P 2.56 | F 2.38 | C 2.09 | T 3.63 | V 2.12 | Y 2.38 | A 2.29 | D 2.52 | E 3.75 | I 2.16 | R 3.11 | N 3.47 | L 2.08
K20: S 2.52 | W 1.02 | C 2.15 | T 3.66 | D 3.36 | A 2.06 | E 3.26 | Q 2.6 | M 2.04 | I 1.21 | L 1.67 | F 1.43 | P 2.49 | V 2.11 | H 2.87 | N 3.04
V6: R 3.62 | W 2.59 | S 4.07 | T 3.71 | Y 2.95
E13: C 1.81 | L 2.7 | Y 1.9 | Q 2.98 | S 3.27 | M 2.09 | D 2.37 | K 2.41 | P 3.48 | T 2.33 | N 1.75 | G 2.79 | W 2.05 | I 1.51 | A 2.14 | H 2.75 | V 1.86
V18: C 2.29 | Y 2.29 | E 3.18 | K 4.16 | A 3.5 | L 1.79 | M 2.62 | S 3.69 | T 3.38 | I 2.82 | G 2.96 | R 2.92 | P 3.57 | H 2.72 | D 3.36 | F 2.1 | N 3.24 | Q 3.83
D17: E 2.84 | T 2.59 | N 2.36 | W 2.06 | Y 1.61 | R 3.07 | G 2.34 | M 1.1 | P 3.08 | C 2.45 | I 1.89 | S 2.21 | L 3.38 | H 2.51

Variants of: B2
Test: as above
Conditions: c terminus: a fixed tail appended

Protein stability index of substitutions, site by site:
H3: C 1.69 | E 3.35 | F 1.75 | I 2.8 | D 3.95
W1: G 2.14 | H 3.09 | P 3.51 | A 3.11 | E 2.82 | T 2.32 | S 1.5 | F 2.29 | V 3.35 | K 3.4 | Q 1.72 | M 2.91 | D 3.44 | L 3.13 | N 2.99 | I 4.21 | Y 3.22
I2: Y 3.56 | E 3.25 | L 1.83 | R 2.34 | G 1.7 | F 1.63 | D 2.21 | S 2.82 | A 2.9 | H 2.9 | T 2.12 | Q 3.22
